From IntAct's records for PubMed 22398447 come the findings set out here.

The labels stand for the following.
B1: Origin recognition complex subunit 1 (Homo sapiens), Q13415 (parent)
chain: MAHYPTRLKTRKTYSWVGRPLLDRKLHYQTYREMCVKTEGCSTEIHIQIGQFVLIEGDDDENPYVAKLLELFEDDSDPPPKKRARVQWFVRFCEVPACKRHLLGRKPGAQEIFWYDYPACDSNINAETIIGLVRVIPLAPKDVVPTNLKNEKTLFVKLSWNEKKFRPLSSELFAELNKPQESAAKCQKPVRAKSKSAESPSWTPAEHVAKRIESRHSASKSRQTPTHPLTPRARKRLELGNLGNPQMSQQTSCASLDSPGRIKRKVAFSEITSPSKRSQPDKLQTLSPALKAPEKTRETGLSYTEDDKKASPEHRIILRTRIAASKTIDIREERTLTPISGGQRSSVVPSVILKPENIKKRDAKEAKAQNEATSTPHRIRRKSSVLTMNRIRQQLRFLGNSKSDQEEKEILPAAEISDSSSDEEEASTPPLPRRAPRTVSRNLRSSLKSSLHTLTKVPKKSLKPRTPRCAAPQIRSRSLAAQEPASVLEEARLRLHVSAVPESLPCREQEFQDIYNFVESKLLDHTGGCMYISGVPGTGKTATVHEVIRCLQQAAQANDVPPFQYIEVNGMKLTEPHQVYVQILQKLTGQKATANHAAELLAKQFCTRGSPQETTVLLVDELDLLWTHKQDIMYNLFDWPTHKEARLVVLAIANTMDLPERIMMNRVSSRLGLTRMCFQPYTYSQLQQILRSRLKHLKAFEDDAIQLVARKVAALSGDARRCLDICRRATEICEFSQQKPDSPGLVTIAHSMEAVDEMFSSSYITAIKNSSVLEQSFLRAILAEFRRSGLEEATFQQIYSQHVALCRMEGLPYPTMSETMAVCSHLGSCRLLLVEPSRNDLLLRVRLNVSQDDVLYALKDE

Variants of B1 are the subject of the assay. The conditions noted are these: with h4_bovin h4, P62803.
Consider W88A, for which the “effect of a mutation on the interaction” value was “disrupting interaction strength”. On to Y64A, for which the “effect of a mutation on the interaction” value is reported as “disrupting interaction strength”. In the case of E94A, the “effect of a mutation on the interaction” value is “disrupting interaction strength”.
